Measurements taken from patent US5576294A, “Human Kunitz-type protease inhibitor variant” (Novo Nordisk A/S, priority 1992, dated 1996).
pKi: −log10 of the molar value. Each block holds one substance with its values, some of them ahead of it.

How the values were obtained:
plasma kallikrein [1] = target: T1, plasma kallikrein (Homo sapiens, UniProt P03952); assay: Inhibition of serine proteinases: plasma kallikrein; assay type: biochemical; conditions: Example 3; 30 min incubation, FIG. 3
Procedure: (§1) KFN 1593 was purified from yeast culture medium as described in example 1. The concentration of KFN 1593 was determined using 1% E280 nm =8.3 and Mw =6500. Porcine trypsin was from Novo Nordisk (Bagsv.ae butted.rd, Denmark), bovine chymotrypsin (TLCK treated) and porcine pancreatic kallikrein was from Sigma Chemical Co (St. Louis, Mo., U.S.A.), human plasmin and human plasma kallikrein was from Kabi (Stockholm, Sweden).
(§2) Human neutrophil elastase and cathepsin G was purified from extracts of PMNs according to the method described by Baugh and Travis (Biochemistry 15 (1976) 836-843). Peptidyl nitroanilide substrates, S2251, S2586, S2266, S2302 were from Kabi (Stockholm, Sweden). M4765 and S7388 was from Sigma Chemical Co (St. Louis, Mo., U.S.A.) and FXa-1 was from NycoMed (Oslo, Norway).
(§3) Serine proteinases were incubated with various concentrations of KFN 1593 for 30 min. Substrate was then added and residual proteinase activity was measured at 405 nm.
(§4) The three TFPI (domain II) variants were purified from yeast culture medium. Their concentrations were determined from the absorbance at 214 nm using BPTI as a standard. The final concentration was determined by titration with trypsin. Porcine trypsin and human recombinant proteins, factor VIIa, activated protein C (ACP), and tPA were obtained from Novo Nordisk A/S (Bagsvaerd, Denmark), so was human thrombin. Bovine chymotrypsin and glandular kallikrein were obtained from Sigma Chemical Co. (St. Louis, Mo., U.S.A.). Truncated human recombinant tissue factor was obtained from Corvas (San Diego, Calif., U.S.A.). Human neutrophil cathepsin G was purified from extracts of PMNs according to the method described by Baugh and Travis (Biochemistry 15 (1976) 836-843). Human plasmin was from Kabi (Stockholm, Sweden), uPA was from Serono (Milan, Italy), human factor Xa was a gift from Dr. W. Kisiel (Albuquerque, N.M., U.S.A.), and human plasma kallikrein was a gift from Dr. I Schousboe (Copenhagen, Denmark).
(§5) Peptidyl nitroanilide substrates, S2251, S2302, S2266, S2586, S2288, S2444, S2366, and S2238 were from Kabi (Stockholm, Sweden). S7388 and M4765 were from Sigma Chemical Co. (St. Louis, Mo., U.S.A.) and FXa-1 was from Nycomed (Oslo, Norway).
(§6) Serine proteinases were incubated with various concentrations of Kunitz Domain variant for 30 min. Substrate (0.6 mM) was then added and residual proteinase activity was measured at 405 nm.
Target sequence in this assay (P03952 391-638 limits assumed): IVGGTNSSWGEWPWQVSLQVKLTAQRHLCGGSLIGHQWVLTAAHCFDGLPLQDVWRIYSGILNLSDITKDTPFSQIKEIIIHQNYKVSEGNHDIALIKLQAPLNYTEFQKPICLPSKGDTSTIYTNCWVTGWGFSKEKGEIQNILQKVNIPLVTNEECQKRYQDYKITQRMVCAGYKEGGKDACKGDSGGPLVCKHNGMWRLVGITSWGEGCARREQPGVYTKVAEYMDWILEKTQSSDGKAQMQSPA
Target sequence in this assay (P03952 20-390 limits assumed): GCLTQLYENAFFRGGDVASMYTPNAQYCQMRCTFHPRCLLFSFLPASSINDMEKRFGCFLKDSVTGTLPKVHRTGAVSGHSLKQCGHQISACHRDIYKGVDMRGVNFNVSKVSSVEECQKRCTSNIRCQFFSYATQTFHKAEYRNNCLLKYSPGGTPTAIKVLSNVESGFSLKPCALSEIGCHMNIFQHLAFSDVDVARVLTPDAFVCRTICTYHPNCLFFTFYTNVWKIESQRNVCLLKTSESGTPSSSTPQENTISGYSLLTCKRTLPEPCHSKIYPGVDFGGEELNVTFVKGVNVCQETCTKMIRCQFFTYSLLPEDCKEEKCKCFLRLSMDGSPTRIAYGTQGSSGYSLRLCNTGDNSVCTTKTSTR

[2] = target: T2, Human neutrophil cathepsin G (Homo sapiens, UniProt P08311); assay: Inhibition of serine proteinases: neutrophil cathepsin G; assay type: biochemical; conditions: Example 3; 30 min incubation, FIG. 3
T2 construct: Human neutrophil cathepsin G was purified from extracts of PMNs; from tissue; host or cells: extracts of human polymorphonuclear leukocytes (PMNs), method of Baugh and Travis
T2 sequence (P08311 21-255): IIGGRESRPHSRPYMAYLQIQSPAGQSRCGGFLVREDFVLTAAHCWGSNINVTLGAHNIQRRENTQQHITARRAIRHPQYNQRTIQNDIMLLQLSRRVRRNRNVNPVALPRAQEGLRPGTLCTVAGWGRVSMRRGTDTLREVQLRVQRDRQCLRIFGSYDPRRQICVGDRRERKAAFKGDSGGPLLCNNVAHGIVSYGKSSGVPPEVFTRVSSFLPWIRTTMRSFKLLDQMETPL
Procedure: as §1, §2, §3, §4, §5, §6
(§7) The four variants were purified from yeast culture medium. Their concentrations were determined from the absorbance at 214 nm using BTPI as a standard. Porcine trypsin was obtained from Novo Nordisk A/S (Bagsvaerd, Denmark, bovine chymotrypsin (TLCK treated) was obtained from Sigma Chemical Co. (St. Louis, Mo., U.S.A.). Truncated human recombinant tissue factor was obtained from Corvas (San Diego, Calif., U.S.A.). Human plasmin was from Kabi (Stockholm, Sweden). Human neutrophil cathepsin G and elastase were purified from extracts of PMNs according to the method described by Baugh and Travis (Biochemistry 15 (1976) 836-843).
(§8) Peptidyl nitroanilide substrates, S2251, S2586 were from Kabi (Stockholm, Sweden). S7388 and M4765 were from Sigma Chemical Co. (St. Louis, Mo., U.S.A.).
(§9) Serine proteinases were incubated with various concentrations of the variants for 30 min. Substrate ([…]) was then added and residual proteinase activity was measured at 405 nm.

Human plasmin = Human plasmin (Homo sapiens, UniProt P00747); assay: Inhibition of serine proteinases: plasmin; assay type: biochemical; parameters: human plasmin and human plasma kallikrein was from Kabi (Stockholm, Sweden); purchased Kabi (Stockholm, Sweden); conditions: Example 3; 30 min incubation, FIG. 2
Chain of Human plasmin (P00747 581-810 limits assumed): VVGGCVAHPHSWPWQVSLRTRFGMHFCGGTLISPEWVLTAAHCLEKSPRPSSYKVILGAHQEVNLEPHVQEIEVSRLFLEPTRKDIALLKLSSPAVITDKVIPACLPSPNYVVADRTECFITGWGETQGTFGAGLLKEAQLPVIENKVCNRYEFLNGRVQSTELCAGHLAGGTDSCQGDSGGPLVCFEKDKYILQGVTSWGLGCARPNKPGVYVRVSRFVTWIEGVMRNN
Chain of Human plasmin (P00747 97-580 limits assumed): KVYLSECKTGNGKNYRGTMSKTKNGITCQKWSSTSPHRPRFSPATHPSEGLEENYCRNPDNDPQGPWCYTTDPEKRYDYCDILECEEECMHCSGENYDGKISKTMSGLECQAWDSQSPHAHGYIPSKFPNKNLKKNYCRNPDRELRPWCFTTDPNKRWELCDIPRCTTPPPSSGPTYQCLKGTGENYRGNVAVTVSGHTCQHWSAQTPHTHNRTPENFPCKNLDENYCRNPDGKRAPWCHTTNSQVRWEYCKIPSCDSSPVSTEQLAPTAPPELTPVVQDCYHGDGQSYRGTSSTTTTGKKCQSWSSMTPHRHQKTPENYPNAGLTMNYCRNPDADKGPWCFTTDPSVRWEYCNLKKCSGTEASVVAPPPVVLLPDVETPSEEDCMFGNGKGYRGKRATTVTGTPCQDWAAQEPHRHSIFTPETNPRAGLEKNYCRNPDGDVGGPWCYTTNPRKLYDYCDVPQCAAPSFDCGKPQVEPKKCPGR
Procedure: as §1, §2, §3, §4, §5, §6, §7, §8, §9

[3] = target: T3, Human neutrophil elastase (Homo sapiens, UniProt P08246); assay: Inhibition of serine proteinases: neutrophil elastase; assay type: biochemical; conditions: Example 3; 30 min incubation, FIG. 3
T3 construct: Human neutrophil elastase and cathepsin G was purified from extracts of PMNs; from tissue; host or cells: extracts of human polymorphonuclear leukocytes (PMNs), method of Baugh and Travis
T3 sequence (P08246 30-267): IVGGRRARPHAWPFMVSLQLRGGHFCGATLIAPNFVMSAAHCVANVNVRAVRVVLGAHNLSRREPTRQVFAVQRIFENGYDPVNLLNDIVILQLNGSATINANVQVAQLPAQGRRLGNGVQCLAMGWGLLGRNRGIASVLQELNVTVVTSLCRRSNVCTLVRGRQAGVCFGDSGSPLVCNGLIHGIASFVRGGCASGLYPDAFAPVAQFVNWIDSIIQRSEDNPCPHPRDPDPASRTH
Procedure: as §1, §2
Serine proteinases were incubated with various concentrations of KFN 1593 for 30 min. Substrate was then added and residual proteinase activity was measured at 405 nm. […]
as §7, §8, §9

human factor Xa = target: T4, human factor Xa (Homo sapiens, UniProt P00742); assay: Inhibition of serine proteinases: Factor Xa; assay type: biochemical; conditions: Example 3; 30 min incubation; read-out: Ki, factor X.
T4 construct: human factor Xa was a gift from Dr. W. Kisiel; gift from Dr. W. Kisiel (Albuquerque, N.M., U.S.A.)
T4 sequence (P00742 235-488 limits assumed): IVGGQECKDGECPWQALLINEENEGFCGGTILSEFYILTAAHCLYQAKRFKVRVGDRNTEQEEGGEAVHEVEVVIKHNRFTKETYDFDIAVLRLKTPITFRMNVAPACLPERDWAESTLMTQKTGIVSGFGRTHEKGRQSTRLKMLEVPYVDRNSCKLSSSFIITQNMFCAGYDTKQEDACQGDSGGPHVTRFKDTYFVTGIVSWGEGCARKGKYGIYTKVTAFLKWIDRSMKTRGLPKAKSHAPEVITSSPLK
T4 sequence (P00742 41-179 limits assumed): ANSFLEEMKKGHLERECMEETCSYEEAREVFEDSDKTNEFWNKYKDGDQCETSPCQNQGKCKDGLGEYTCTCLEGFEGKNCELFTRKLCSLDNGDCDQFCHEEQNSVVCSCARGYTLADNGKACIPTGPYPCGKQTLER
Procedure: as §1, §2, §3
The three TFPI (domain II) variants were purified from yeast culture medium. Their concentrations were determined from the absorbance at 214 nm using BPTI as a standard. The final concentration was determined by titration with trypsin. […]
as §6

[4] = target: T5, glandular kallikrein (porcine pancreatic kallikrein) (Sus scrofa, UniProt P00752); assay: Inhibition of serine proteinases: glandular kallikrein; assay type: biochemical; conditions: Example 3; 30 min incubation, FIG. 3
T5 construct: purchased Sigma Chemical Co (St. Louis, Mo., U.S.A.)
T5 sequence (P00752 8-246): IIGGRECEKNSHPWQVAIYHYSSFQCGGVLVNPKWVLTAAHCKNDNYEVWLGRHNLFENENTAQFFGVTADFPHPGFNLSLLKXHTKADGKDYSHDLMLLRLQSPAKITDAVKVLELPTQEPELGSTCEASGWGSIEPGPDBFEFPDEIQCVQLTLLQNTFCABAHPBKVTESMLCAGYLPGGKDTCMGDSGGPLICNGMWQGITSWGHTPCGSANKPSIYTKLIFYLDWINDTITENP
Procedure: as §1, §2, §3, §4, §5, §6

[5] = high doses; cardiac surgery including cardiopulmonary bypass operations; cited from earlier work
plasma kallikrein [6] = target: T1, plasma kallikrein; conditions: cf. WO 89/10374; cited from earlier work
Target sequence in this assay (P03952 20-638, species assumed): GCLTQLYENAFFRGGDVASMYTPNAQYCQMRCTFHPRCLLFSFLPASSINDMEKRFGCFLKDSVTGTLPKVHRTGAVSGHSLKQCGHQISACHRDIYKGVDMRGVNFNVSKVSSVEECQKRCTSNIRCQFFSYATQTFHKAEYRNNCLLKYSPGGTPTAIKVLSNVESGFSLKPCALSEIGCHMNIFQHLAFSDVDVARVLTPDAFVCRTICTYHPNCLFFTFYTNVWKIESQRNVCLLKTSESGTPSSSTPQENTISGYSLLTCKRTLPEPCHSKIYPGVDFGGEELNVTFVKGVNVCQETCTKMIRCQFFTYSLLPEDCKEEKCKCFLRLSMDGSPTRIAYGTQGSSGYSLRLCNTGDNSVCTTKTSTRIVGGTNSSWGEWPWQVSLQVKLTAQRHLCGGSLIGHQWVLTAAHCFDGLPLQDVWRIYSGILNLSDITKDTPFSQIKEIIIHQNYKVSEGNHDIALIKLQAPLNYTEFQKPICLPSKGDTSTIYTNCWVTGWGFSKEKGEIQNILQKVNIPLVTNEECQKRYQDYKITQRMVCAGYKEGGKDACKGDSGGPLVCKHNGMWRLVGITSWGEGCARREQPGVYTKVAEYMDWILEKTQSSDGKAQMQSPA

collagenase = conditions: Wenzel and Tschesche 1981; cited from earlier work
granulocyte elastase = target: T6, granulocyte elastase (Homo sapiens, UniProt P08246); conditions: Wenzel and Tschesche 1981; cited from earlier work
T6 sequence (P08246 30-267): T3 sequence (P08246 30-267)

inhibition of kallikreins (in words): plasma kallikrein (plasma kallikrein [1]): essentially absent | inhibition of Cathepsin G (in words) [2]: essentially absent | inhibition of plasmin (in words) (Human plasmin): moderate inhibition | inhibition of neutrophil elastase (in words) [3]: moderate inhibition | pKi (human factor Xa): 6.82 | inhibition of kallikreins (in words): glandular kallikrein [4]: essentially absent
Substance: KFN 1593: Unmodified TFPI Kunitz domain II (second Kunitz domain of tissue factor pathway inhibitor), produced from yeast strain KFN-1593 (RFESLEECKKMCTRDNANRIIKTTLQQEKPDFCFLEEDPGICRGYITRYFYNNQTKQC)

Substance: aprotinin
blood loss in connection with cardiac surgery [5]: significantly reduces blood loss

Substance: aprotinin (3-58, Arg15, Ala17, Ser42)
plasma kallikrein inhibitory effect (in words) (plasma kallikrein [6]): excellent plasma kallikrein inhibitory effect

Substance: aprotinin(1-58, Val15)
effect on collagenase (in words) (collagenase): inhibitory effect | effect on granulocyte elastase (in words) (granulocyte elastase): relatively high selectivity
